{
  "source": "paper doi:10.1101/2023.10.26.564242",
  "about": "“KIF1C activates and extends dynein movement through the FHF cargo adaptor” (bioRxiv, 2023)",
  "binders": {"B1": {"name": "HOOK3-SNAPf labelled with Alexa 647 (natural protein, human, UniProt Q86VS8 1-718, looked up)", "chain": "MFSVESLERAELCESLLTWIQTFNVDAPCQTVEDLTNGVVMAQVLQKIDPAYFDENWLNRIKTEVGDNWRLKISNLKKILKGILDYNHEILGQQINDFTLPDVNLIGEHSDAAELGRMLQLILGCAVNCEQKQEYIQAIMMMEESVQHVVMTAIQELMSKESPVSAGNDAYVDLDRQLKKTTEELNEALSAKEEIAQRCHELDMQVAALQEEKSSLLAENQVLMERLNQSDSIEDPNSPAGRRHLQLQTQLEQLQEETFRLEAAKDDYRIRCEELEKEISELRQQNDELTTLADEAQSLKDEIDVLRHSSDKVSKLEGQVESYKKKLEDLGDLRRQVKLLEEKNTMYMQNTVSLEEELRKANAARSQLETYKRQVVELQNRLSEESKKADKLDFEYKRLKEKVDSLQKEKDRLRTERDSLKETIEELRCVQAQEGQLTTQGLMPLGSQESSDSLAAEIVTPEIREKLIRLQHENKMLKLNQEGSDNEKIALLQSLLDDANLRKNELETENRLVNQRLLEVQSQVEELQKSLQDQGSKAEDSVLLKKKLEEHLEKLHEANNELQKKRAIIEDLEPRFNNSSLKIEELQEALRKKEEEMKQMEERYKKYLEKAKSVIRTLDPKQNQGAAPEIQALKNQLQERDRLFHSLEKEYEKTKSQREMEEKYIVSAWYNMGMTLHKKAAEDRLASTGSGQSFLARQRQATSSRRSYPGHVQPATAR", "modifications": "benzylguanine conjugated fluorophore (Alexa 647) on the SNAPf domain", "notes": "HOOK3, amplified from a human cDNA library, full length; pFastBacM13-8xHis-ZZ-LTLT-HOOK3-SNAPf; An untagged full-length HOOK3 from the same backbone was used in assays with Lis1; source: Sf9 (baculovirus), purified (Ni-NTA, IgG Sepharose, TEV cleavage); not shown: 8xHis, N-terminal, cleaved; ZZ, N-terminal, cleaved; SNAPf, C-terminal, kept"}, "B2": {"name": "GST-KIF1C stalk (residues 642-922) (domain or fragment, human, UniProt O43896 642-922, looked up)", "chain": "EMEKRLQDLENQYRKEKEEADLLLEQQRLYADSDSGDDSDKRSCEESWRLISSLREQLPPTTVQTIVKRCGLPSSGKRRAPRRVYQIPQRRRLQGKDPRWATMADLKMQAVKEICYEVALADFRHGRAEIEALAALKMRELCRTYGKPDGPGDAWRAVARDVWDTVGEEEGGGAGSGGGSEEGARGAEVEDLRAHIDKLTGILQEVKLQNSSKDRELQALRDRMLRMERVIPLAQDHEDENEEGGEVPWAPPEGSEAAEEAAPSDRMPSARPPSPPLSSWE", "notes": "also called KS; Ks; source: E. coli SoluBL21, purified (Ni-NTA, Superdex 200); not shown: GST, N-terminal, kept"}, "B3": {"name": "GST-KIF1C stalk 674-922 (domain or fragment, human, UniProt O43896 674-922, looked up)", "chain": "SDSGDDSDKRSCEESWRLISSLREQLPPTTVQTIVKRCGLPSSGKRRAPRRVYQIPQRRRLQGKDPRWATMADLKMQAVKEICYEVALADFRHGRAEIEALAALKMRELCRTYGKPDGPGDAWRAVARDVWDTVGEEEGGGAGSGGGSEEGARGAEVEDLRAHIDKLTGILQEVKLQNSSKDRELQALRDRMLRMERVIPLAQDHEDENEEGGEVPWAPPEGSEAAEEAAPSDRMPSARPPSPPLSSWE", "notes": "also called KIF1CS2; source: E. coli SoluBL21, purified (Ni-NTA, Superdex 200); not shown: GST, N-terminal, kept"}, "B4": {"name": "HOOK3 C-terminal fragment (residues 571-718) (domain or fragment, human, UniProt Q86VS8 571-718, looked up)", "chain": "DLEPRFNNSSLKIEELQEALRKKEEEMKQMEERYKKYLEKAKSVIRTLDPKQNQGAAPEIQALKNQLQERDRLFHSLEKEYEKTKSQREMEEKYIVSAWYNMGMTLHKKAAEDRLASTGSGQSFLARQRQATSSRRSYPGHVQPATAR", "notes": "The HOOK3 chain of the FHF cryo-EM construct, written alone for the rows of two; not shown: Strep II, N-terminal, cleaved"}},
  "key": {"full-length KIF1C-GFP": {"molecular_target": "T1, full-length KIF1C-GFP (human, UniProt O43896 1-1103)", "T1 construct": "KIF1C, human, full length; also called KFL", "T1 sequence (looked up)": "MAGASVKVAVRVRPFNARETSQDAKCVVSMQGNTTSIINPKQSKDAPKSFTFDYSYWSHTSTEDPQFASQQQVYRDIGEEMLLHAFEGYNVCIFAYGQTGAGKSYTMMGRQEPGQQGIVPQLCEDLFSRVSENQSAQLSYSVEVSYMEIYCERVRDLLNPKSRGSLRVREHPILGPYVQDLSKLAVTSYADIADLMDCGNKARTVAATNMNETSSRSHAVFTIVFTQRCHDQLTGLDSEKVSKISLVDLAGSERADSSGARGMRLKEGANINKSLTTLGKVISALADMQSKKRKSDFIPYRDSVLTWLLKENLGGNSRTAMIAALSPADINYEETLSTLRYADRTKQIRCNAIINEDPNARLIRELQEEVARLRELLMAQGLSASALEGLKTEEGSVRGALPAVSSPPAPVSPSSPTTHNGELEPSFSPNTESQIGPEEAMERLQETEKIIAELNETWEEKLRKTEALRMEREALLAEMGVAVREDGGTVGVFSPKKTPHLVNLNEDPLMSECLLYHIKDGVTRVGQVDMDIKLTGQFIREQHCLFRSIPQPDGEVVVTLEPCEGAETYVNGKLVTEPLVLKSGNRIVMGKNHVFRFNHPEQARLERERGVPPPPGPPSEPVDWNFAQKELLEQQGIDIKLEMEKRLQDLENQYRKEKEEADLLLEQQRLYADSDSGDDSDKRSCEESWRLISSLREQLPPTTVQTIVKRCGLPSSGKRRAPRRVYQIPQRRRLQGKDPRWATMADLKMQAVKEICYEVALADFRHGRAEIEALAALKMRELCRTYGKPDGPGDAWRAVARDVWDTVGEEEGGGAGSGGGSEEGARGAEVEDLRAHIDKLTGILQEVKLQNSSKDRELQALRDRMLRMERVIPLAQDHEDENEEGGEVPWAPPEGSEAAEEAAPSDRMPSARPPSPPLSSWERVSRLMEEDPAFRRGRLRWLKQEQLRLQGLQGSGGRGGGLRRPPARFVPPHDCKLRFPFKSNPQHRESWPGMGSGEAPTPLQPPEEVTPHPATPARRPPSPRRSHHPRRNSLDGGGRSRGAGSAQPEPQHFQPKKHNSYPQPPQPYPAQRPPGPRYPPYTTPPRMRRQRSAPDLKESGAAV", "assay": "single-molecule TIRF co-movement on microtubules; TMR-dynein, dynactin, HOOK3-Alexa 647 and KIF1C-GFP mixed (200 nM dynein, 200 nM dynactin, 1600 nM adaptor, 180 nM KIF1C-GFP, ~75 mM KCl), diluted and imaged on taxol microtubules at 25 °C; controls with single components omitted", "settings": "both partners purified"}, "[1]": {"molecular_target": "T2, full-length FTS-HOOK3-FHIP1B (FHF) complex (human, UniProt Q9H8T0 1-292; Q86VS8 1-718; Q8N612 1-972)", "T2 construct": "FTS, human, full length; HOOK3, human, full length; FHIP1B, human, full length; also called full-length FHF; source: Sf9 (baculovirus), co-expressed, purified (Strep-Tactin, Prescission cleavage, Superose 6); not shown: Strep II, N-terminal, cleaved; copies: + 2 +", "T2 sequence (Q9H8T0 whole entry, chain 1 of 2)": "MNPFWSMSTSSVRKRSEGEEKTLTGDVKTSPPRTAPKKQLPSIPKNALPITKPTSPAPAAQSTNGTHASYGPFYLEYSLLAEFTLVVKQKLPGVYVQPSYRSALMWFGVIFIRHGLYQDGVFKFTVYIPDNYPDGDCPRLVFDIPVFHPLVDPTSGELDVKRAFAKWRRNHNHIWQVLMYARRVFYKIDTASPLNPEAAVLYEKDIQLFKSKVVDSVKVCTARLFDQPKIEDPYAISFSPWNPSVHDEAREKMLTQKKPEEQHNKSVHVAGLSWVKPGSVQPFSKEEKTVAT", "T2 sequence (Q8N612 whole entry, chain 3 of 2)": "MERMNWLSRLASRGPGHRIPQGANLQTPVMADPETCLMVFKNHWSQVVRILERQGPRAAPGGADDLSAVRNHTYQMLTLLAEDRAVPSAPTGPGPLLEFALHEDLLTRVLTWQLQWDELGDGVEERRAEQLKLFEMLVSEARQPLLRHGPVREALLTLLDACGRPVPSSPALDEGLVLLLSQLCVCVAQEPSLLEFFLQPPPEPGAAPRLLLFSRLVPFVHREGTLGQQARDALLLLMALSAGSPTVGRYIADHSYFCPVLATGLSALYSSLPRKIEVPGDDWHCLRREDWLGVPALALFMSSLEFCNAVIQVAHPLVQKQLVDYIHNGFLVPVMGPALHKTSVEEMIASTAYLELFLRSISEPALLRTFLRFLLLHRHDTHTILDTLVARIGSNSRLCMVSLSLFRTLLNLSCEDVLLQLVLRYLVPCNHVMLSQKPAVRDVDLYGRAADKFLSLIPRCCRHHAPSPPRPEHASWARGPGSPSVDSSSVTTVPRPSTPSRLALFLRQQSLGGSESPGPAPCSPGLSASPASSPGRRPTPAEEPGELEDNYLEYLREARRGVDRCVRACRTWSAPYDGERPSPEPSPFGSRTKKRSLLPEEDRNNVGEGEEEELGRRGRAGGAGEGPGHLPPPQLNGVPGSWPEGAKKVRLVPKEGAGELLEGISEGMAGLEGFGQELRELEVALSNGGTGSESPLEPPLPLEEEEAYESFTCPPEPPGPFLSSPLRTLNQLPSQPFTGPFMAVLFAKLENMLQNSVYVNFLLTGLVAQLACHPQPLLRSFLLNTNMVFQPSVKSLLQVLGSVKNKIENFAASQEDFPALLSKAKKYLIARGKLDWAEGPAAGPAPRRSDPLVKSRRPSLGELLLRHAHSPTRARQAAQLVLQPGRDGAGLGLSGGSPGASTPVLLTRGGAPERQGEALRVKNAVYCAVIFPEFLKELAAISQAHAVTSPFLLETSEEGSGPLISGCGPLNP", "assay": "mass photometry; full-length FHF with KIF1C stalk, diluted to 100 nM in GF150; Refeyn TwoMP", "settings": "both partners purified"}, "[2]": {"molecular_target": "B1", "assay": "cell-based or functional assay"}, "[3]": {"molecular_target": "T2, full-length FTS-HOOK3-FHIP1B (FHF) …", "assay": "cell-based or functional assay"}, "[4]": {"molecular_target": "T3, HOOK3, full length (as in full-length FHF) (human, UniProt Q86VS8 1-718)", "T3 construct": "HOOK3, human, full length; gene codon optimised for Sf9; The HOOK3 chain of full-length FHF, written alone for the rows of two; not shown: Strep II, N-terminal, cleaved", "T3 sequence (looked up)": "B1 chain", "assay": "cross-linking; cross-linking mass spectrometry with 10 mM EDC or 5 mM DSSO, room temperature, 60 minutes; full-length FHF or FH^571-718F bound to KIF1C stalk 674-922", "settings": "both partners purified"}, "[5]": {"molecular_target": "T4, HOOK3 residues 451-718 (as in FH^451-718F) (human, UniProt Q86VS8 451-718)", "T4 construct": "The HOOK3 chain of m12, written alone for the row of two; also called HOOK3 C-terminal fragment; not shown: Strep II, N-terminal, cleaved", "T4 sequence (looked up)": "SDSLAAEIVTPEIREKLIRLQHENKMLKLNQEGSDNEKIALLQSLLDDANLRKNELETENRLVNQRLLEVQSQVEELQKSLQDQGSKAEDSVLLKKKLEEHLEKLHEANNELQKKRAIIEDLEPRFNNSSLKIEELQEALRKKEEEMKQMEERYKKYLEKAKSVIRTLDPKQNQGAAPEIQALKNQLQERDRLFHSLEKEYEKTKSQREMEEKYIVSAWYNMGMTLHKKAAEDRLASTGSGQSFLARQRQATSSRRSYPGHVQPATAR", "assay": "cryo-EM structure; FH^451-718F bound to GST-KIF1C stalk 674-922; low resolution at the KIF1C density", "settings": "both partners purified"}, "GST-KIF1C stalk 674-922": {"molecular_target": "B3", "assay": "cross-linking; cross-linking mass spectrometry with 10 mM EDC or 5 mM DSSO, room temperature, 60 minutes; full-length FHF or FH^571-718F bound to KIF1C stalk 674-922", "settings": "both partners purified"}, "[6]": {"molecular_target": "the molecule itself", "assay": "cryo-EM structure; FHF with full-length FTS and FHIP1B and HOOK3 571-718, 0.9 mg/ml with 0.1% CHAPSO or 0.005% Igepal; 3.2 Å reconstruction"}},
  "data": [
    {"binder": "B1", "values": [
      {"measurement": "binding result", "setting": "full-length KIF1C-GFP", "value": "binds"}
    ]},
    {"binder": "B2", "values": [
      {"measurement": "stoichiometry N", "setting": "[1]", "value": "1 dimeric KIF1C stalk per FHF"},
      {"measurement": "dynein microtubule recruitment (TMR-dynein landing rate, TIRF) with dynactin, HOOK3 and Lis1, with against without the KIF1C stalk construct (GST-KIF1C642-922-GFP in this assay)", "setting": "[2]", "value": 2.6, "unit": "fold"},
      {"measurement": "processive events of dynein-dynactin-FHF (TIRF), with KIF1C stalk against a DDFHF control", "setting": "[3]", "value": "~3.7", "unit": "fold"}
    ]},
    {"binder": "B3", "values": [
      {"measurement": "binding result", "setting": "[4]", "value": "binds"},
      {"measurement": "binding result", "setting": "[5]", "value": "binds"}
    ]},
    {"binder": "B4", "values": [
      {"measurement": "binding result", "setting": "GST-KIF1C stalk 674-922", "value": "binds"},
      {"measurement": "binding result", "setting": "[6]", "value": "binds"}
    ]}
  ]
}
